Source: patent US8609089B2, “Compositions of PD-1 antagonists and methods of use” (Amplimmune, Inc., priority 2008, dated 2013)

B1: B7-DC-Ig-APC: B7-DC-Ig conjugated with allophycocyanin (APC) (conjugate)
chain: LFTVTAPKEVYTVDVGSSVSLECDFDRRECTELEGIRASLQKVENDTSLQSERATLLEEQLPLGKALFHIPSVQVRDSGQYRCLVICGAAWDYKYLTVKVKASYMRIDTRILEVPGTGEVQLTCQARGYPLAEVSWQNVSVPANTSHIRTPEGLYQVTSVLRLKPQPSRNFSCMFWNAHMKELTSAIIDPLSRMEPKVPRTWEPRGPTIKPCPPCKCPAPNLLGGPSVFIFPPKIKDVLMISLSPIVTCVVVDVSEDDPDVQISWFVNNVEVHTAQTQTHREDYNSTLRVVSALPIQHQDWMSGKEFKCKVNNKDLPAPIERTISKPKGSVRAPQVYVLPPPEEEMTKKQVTLTCMVTDFMPEDIYVEWTNNGKTELNYKNTEPVLDSDGSYFMYSKLRVEKKNWVERNSYSCSVVHEGLHNHHTTKSFSRTPGK
B2: B7-DC-Ig: homodimer having 2 copies of SEQ ID NO: 10 linked by a disulfide linkage; mouse B7-DC ECD fused to Fc of mouse IgG2a (protein)
chain: B1 chain
modifications: homodimer via disulfide; Murine B7-DC-Ig fusion protein without signal sequence
notes: mouse B7-DC ECD fused to Fc of mouse IgG2a

Columns and labels:
[1] = system: CT26 colorectal tumor cells; assay: CT26 subcutaneous established tumor model, tumor eradication; type: in vivo, Balb/C mice
Experimental: Mouse colorectal tumor cell line, CT26, was obtained from ATCC. A master cell bank at Passage 4 was generated following ATCC guidelines. […] One vial of tumor cells was thawed from the cryopreserved stocks and grown for two passages prior to inoculation.
CT26 cells were split at 1:5 dilution with 30 mL complete medium (RPMI+10% FBS, 2 mM L-Glu, and 1×P/S) for two days culture or at 1:10 dilution with 30 ml complete medium for 3 days culture.
CT26 cells were harvested by aspirating medium, rinsing the flask with 5 mL PBS, adding 5 mL trypsin, incubating at 37° C. for 2 min, and then neutralizing with 10 mL complete medium. After centrifuge at 600×g (˜1000 rpm) for 5 min, media was aspirated and the cell pellet was resuspended by pipetting with 10 ml plain RPMI. This wash step was repeated for three times.
Cell number and viability of the inoculated cells were analyzed by trypan blue dye staining with proper dilution (e.g. 1:5 dilution, 10 μL cells+40 μL trypan blue) and confirmed by NOVA cell count during the last wash step.
CT26 cells were diluted to 6.7×10^5 cells/mL for initial inoculation with plain RPMI and stored on ice. Typically each mouse was inoculated with 150 μL (1×10^5 cells).
CTX solution was reconstituted by 1×PBS to 4 mg/mL. […]
The same dose was given 2 time a week for 4 weeks, total 8 doses. […] Tumor volume was calculated as following: Tumor volume=π(Dshort)^2×(Dlong)/6=˜0.52×(Dshort)^2×(Dlong)
Mice were euthanized and taken off the study if the tumor volume reached 2000 mm^3 or if there were skin ulcers and infections at the tumor inoculation site.
On day 11 post tumor challenge, mice received a single dose of cyclophosphamide (100 mg/kg) and started treatment with anti-PD-1 antibody (250 ug, Clone G4, Hirano F. et al., 2005 Cancer Research) which was administered 3 times per week for four weeks.
On day 11 post tumor challenge, mice received 100 mg/kg of cyclophosphamide. Anti-CTLA4 (an anti-mouse CTLA4 from hamster hybridoma—ATCC deposit UC10-4F10-11) treatment was started 1 day later, on day 12. Mice were treated with 100 ug of anti-CTLA4, 2 doses per week, for 4 weeks.

AB1-HA tumor = settings: CTX treatment at Day 9; van der Most et al. 2009; cited from earlier work
[2] = system: Treg and CD4+ T cells expressing high PD-1; assay: T cell analysis in CT26 tumor-bearing mice (Treg, PD-1+/CD4+ T cells); type: in vivo, Balb/C mice
Experimental: On Day 9, mice were injected with 100 mg/kg of CTX, IP. […] Two naïve mice and 4 mice from other groups were removed from the study on Day 11 (2 days post CTX) and Day 16 (7 days post CTX) for T cell analysis. […] Mice implanted with tumor cells intended to have more PD-1+/CD4+ T cells in the draining LN compared with naïve mice.

SP-1 cells = assay: Metastatic prostate tumor model, survival; type: in vivo, B10.D2 mice; settings: CTX 50 mg/kg Day 5, 12, 19; B7-DC-Ig 5 mg/kg Day 6, 13, 20; SP-1 cells intravenously
Experimental: SP-1 cells were isolated from mouse lungs that were metastasized from TRAMP prostate tumor cell injection. B10.D2 mice were first injected with 3×10^5 SP-1 cells via tail vein injection. On Day 5, 12 and 19, mice were injected with 50 mg/kg of CTX where was indicated. […] Here, “NT” refers to “not treated”.
The CTX mice received 3 doses of CTX, 50 mg/kg, on Day 5, 12 and 19.

[3] = system: parent CHO cells that do not express PD-1; assay: Flow cytometry binding to parent CHO cells; settings: various concentrations
Experimental: (§1) Binding was analyzed by flow cytometry.

[4] = target: T1, CHO cell line constitutively expressing PD-1 (Homo sapiens, UniProt Q15116); assay: Flow cytometry binding to CHO cells expressing PD-1; settings: various concentrations
T1 construct: expressed in transfected cells; host or cells: CHO
T1 sequence (Q15116 25-288): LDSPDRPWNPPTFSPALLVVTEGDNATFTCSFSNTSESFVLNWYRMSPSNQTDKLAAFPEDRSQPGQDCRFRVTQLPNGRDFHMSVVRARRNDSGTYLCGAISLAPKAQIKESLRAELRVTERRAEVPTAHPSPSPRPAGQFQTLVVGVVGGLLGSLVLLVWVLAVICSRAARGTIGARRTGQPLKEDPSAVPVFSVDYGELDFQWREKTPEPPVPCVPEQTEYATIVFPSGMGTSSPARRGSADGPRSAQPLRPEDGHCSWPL
Experimental: as §1

PD-1 = target: T2, PD-1 (Homo sapiens, UniProt Q15116); assay: Competition with labeled B7-H1-Ig for binding to PD-1 on CHO cells; settings: unlabeled competitor at various concentrations, then B7-H1-Ig-APC; MFI
T2 construct: expressed in transfected cells; host or cells: CHO
T2 sequence (Q15116 25-288): as above
Source text: B7-H1-Ig was first conjugated with allophycocyanin (APC).

Row | Molecule | outcome of mice, CTX alone group ([1]; CTX 100 mg/kg day 10) | cure rate (AB1-HA tumor) [%] | Treg in the spleen vs vehicle-injected tumor-bearing mice ([2]; Day 11, 2 days post CTX 100 mg/kg IP) | mice survived on Day 100 (SP-1 cells) [%] | binding to untransfected CHO cells (median fluorescence intensity) [3] | binding to CHO.PD-1 cells (median fluorescence intensity) [4] | tumor eradication ([1]; cyclophosphamide 100 mg/kg day 9, 30 μg B7-DC-Ig from Day 10, 2 doses per week, 8 doses) [%] | tumor eradication ([1]; cyclophosphamide 100 mg/kg day 9, 100 μg B7-DC-Ig from Day 10, 2 doses per week, 8 doses) [%] | mice that eradicated the tumors ([1]; cyclophosphamide 100 mg/kg day 9, 300 μg B7-DC-Ig from Day 10, 2 doses per week, 8 doses) [%] | competition with B7-H1 for binding to PD-1 (PD-1) | CD4+ T cells expressing high PD-1 ([2]; Day 16, 7 days post CTX and 6 days post B7-DC-Ig 100 ug, draining LN)
1 | O=P1(N(CCCl)CCCl)NCCCO1 (stereo not drawn) [CTX, cyclophosphamide, reference compound] | died as a result of tumor growth or were euthanized | 75 | significantly lower | 17 |  |  |  |  |  |  | 
2 | B1 |  |  |  |  | not untransfected CHO cells | binds to CHO.PD-1 cells |  |  |  |  | 
3 | B2 |  |  |  | 17 |  |  | 10 | 40 | 70 | competes with B7-H1 for binding to PD-1 | significantly lowered the CD4+ T cells expressing high PD-1
